Measurements published in the RNAGym collection of RNA variant scans (doi:10.7554/elife.80360).

B1: CPEB3 Ribozyme (parent)
chain: GGGGGCCACAGCAGAAGCGUUCACGUCGCGGCCCCUGUCAGAUUCUGGUGAAUCUGCGAAUUCUGCUGU

Variants of: B1
Assay: self-cleavage, relative activity (ratio to wild type); higher = more cleavage; co-transcriptional

| Variant | self-cleavage |
| --- | --- |
| C6G C24G | 0.085 |
| C6G C24U | 0.193 |
| C6G C24A | 0.0804 |
| C6G C7U | 0.176 |
| C6G A8C | 0.873 |
| C6G A8U | 0.149 |
| C6G G65U | 0.226 |
| C6G G65A | 0.109 |
| C6G C29U | 0.0888 |
| C6G C29G | 0.0434 |
| C6G C39G | 0.174 |
| C6G A13G | 0.0914 |
| C6A G65A | 0.451 |
| C6A G65C | 0.157 |
| C6A G65U | 0.305 |
| C6G A16C | 0.0895 |
| C6G A16U | 0.151 |
| C6G U21G | 0.0354 |
| C6G U21C | 0.312 |
| C6G U36A | 0.0334 |
| C6G U36G | 0.105 |
| C6G U69G | 0.639 |
| C6G U69C | 0.797 |
| C6G U69A | 0.589 |

| Variant | self-cleavage |
| --- | --- |
| C6G U38C | 0.227 |
| C6G U38A | 0.248 |
| C6G C66U | 0.316 |
| C6G C66A | 0.18 |
| C6A U26A | 0.256 |
| C6A U26G | 0.265 |
| C6A U64A | 0.307 |
| C6A U64G | 0.469 |
| C6G G17A | 0.0588 |
| C6G G17U | 0.0809 |
| C6G G17C | 0.0719 |
| C6U | 1.01 |
| C6G | 0.388 |
| C6A U44A | 0.373 |
| C6A U44C | 0.455 |
| C6A U44G | 0.416 |
| C6G G37C | 0.0619 |
| C6G G37A | 0.0792 |
| C6G C33U | 0.262 |
| C6G C33A | 0.117 |
| C6G C33G | 0.0662 |
| C6G C35A | 0.0719 |
| C6G C35U | 0.15 |
| C6G A10G | 0.459 |

| Variant | self-cleavage |
| --- | --- |
| C6G A10U | 0.375 |
| C6A U61C | 0.15 |
| C6A U61G | 0.242 |
| C6A U49C | 0.716 |
| C6A U49G | 0.5 |
| C6G A15C | 0.122 |
| C6G A51U | 0.353 |
| C6G A42C | 0.257 |
| C6G A42U | 0.154 |
| C6G C9G | 0.445 |
| C6G C9A | 0.651 |
| C6G U49G | 0.31 |
| C6G U49A | 0.467 |
| C6G U49C | 0.417 |
| C6U A10C | 0.985 |
| C6G U67C | 0.344 |
| C6G U67G | 0.374 |
| C6G A40U | 0.0791 |
| C6G A40C | 0.128 |
| C6G A40G | 0.307 |
| C6A U21A | 0.554 |
| C6A U21C | 0.287 |
| C6A U21G | 0.179 |
| C6G A60U | 0.137 |

| Variant | self-cleavage |
| --- | --- |
| C6G A60G | 0.16 |
| C6G A52G | 0.343 |
| C6G A52C | 0.264 |
| C6G G48U | 0.391 |
| C6G G48C | 0.35 |
| C6A U46C | 0.657 |
| C6A U46A | 0.674 |
| C6A U46G | 0.607 |
| C6G C27A | 0.0381 |
| C6G C27G | 0.0563 |
| C6G C27U | 0.0872 |
| C6G C57A | 0.0667 |
| C6G C57U | 0.189 |
| C6G G28U | 0.0241 |
| C6A U43G | 0.367 |
| C6G A59C | 0.21 |
| C6G A59G | 0.255 |
| C6G U43C | 0.39 |
| C6A G58U | 0.695 |
| C6G C34G | 0.0582 |
| C6G C34U | 0.304 |
| C6A U55C | 0.142 |
| C6G G25U | 0.0634 |
| C6G G25C | 0.0497 |

| Variant | self-cleavage |
| --- | --- |
| C6G G19U | 0.0686 |
| C6G G19C | 0.0471 |
| C6G G19A | 0.0949 |
| C6A G68U | 0.939 |
| C6A G68C | 0.889 |
| C6A G68A | 0.881 |
| C6G U26G | 0.224 |
| C6G U26A | 0.188 |
| C6G U53A | 0.234 |
| C6G U53C | 0.108 |
| C6G G50A | 0.42 |
| C6G G50U | 0.37 |
| C6U A8C | 0.941 |
| C6U A8G | 0.813 |
| C6U A8U | 1.01 |
| C6G G58C | 0.294 |
| C6G G58U | 0.402 |
| C6G G58A | 0.2 |
| C6G U44C | 0.281 |
| C6G U44G | 0.183 |
| C6G U44A | 0.224 |
| C6G U62A | 0.129 |
| C6G U62G | 0.0551 |
| C6G C63U | 0.262 |

| Variant | self-cleavage |
| --- | --- |
| C6G C63A | 0.185 |
| C6G C63G | 0.149 |
| C6G G47C | 0.36 |
| C6G G47A | 0.377 |
| C6A U69A | 0.884 |
| C6A U69G | 0.838 |
| C6A U69C | 1.03 |
| C6A U38C | 0.35 |
| C6A U38G | 0.117 |
| C6G G41U | 0.252 |
| C6G G41A | 0.122 |
| C6G G68C | 0.478 |
| C6G G68A | 0.602 |
| C6G G68U | 0.509 |
| C6G C45U | 0.362 |
| C6G C45A | 0.227 |
| C6G G11C | 0.17 |
| C6G G30A | 0.172 |
| C6G G30C | 0.133 |
| C6G U20A | 0.0487 |
| C6A U20A | 0.0587 |
| C6A U20C | 0.204 |
| C6G C18U | 0.0723 |
| C6G C18A | 0.0602 |

| Variant | self-cleavage |
| --- | --- |
| C6G C18G | 0.062 |
| C6G G31U | 0.967 |
| C6G G31A | 0.753 |
| C6G A23C | 0.302 |
| C6G C32A | 0.0685 |
| C6G C32U | 0.212 |
| C6G C32G | 0.0963 |
| C6G C54U | 0.398 |
| C6G C54G | 0.0918 |
| C6A U67C | 0.883 |
| C6A U67A | 0.782 |
| C6A U62C | 0.338 |
| C6G U64A | 0.133 |
| C6G G14A | 0.0825 |
| C6G G14C | 0.0817 |
| C6A U36C | 0.247 |
| C6G G56U | 0.152 |
| C6G G56A | 0.204 |
| C6G G56C | 0.199 |
| C6G U61C | 0.0649 |
| C6A U53A | 0.422 |
| C6A U53G | 0.195 |
| C6A U53C | 0.335 |
